Assay results published in patent US20100112546A1.

Tests used:
[1] = target: PSA-alpha-1-antichymotrypsin (PSA-ACT) complex (UniProt P07288); assay: silicon nanowire FET (p-type), antibody on the wire; PSA-ACT 320 pg/ml
[2] = target: prostate specific antigen (PSA) (UniProt P07288); assay: silicon nanowire FET (p-type), antibody on the wire; f-PSA 0.85 pg/ml
[3] = target: prostate specific antigen (PSA) (UniProt P07288); assay: silicon nanowire FET (p-type), antibody on the wire; f-PSA 850 pg/ml
[4] = target: PSA-alpha-1-antichymotrypsin (PSA-ACT) complex (UniProt P07288); assay: silicon nanowire FET (p-type); mixture of f-PSA 8.5, PSA-ACT 320 and free Ab1 1 x 10^7 pg/ml (f-PSA blocked by Ab1)
[5] = target: prostate specific antigen (PSA) (UniProt P07288); assay: silicon nanowire FET (p-type), antibody on the wire; f-PSA 8.5 pg/ml
[6] = target: PSA-alpha-1-antichymotrypsin (PSA-ACT) complex (UniProt P07288); assay: silicon nanowire FET (p-type), antibody on the wire; PSA-ACT 3200 pg/ml
[7] = target: PSA-alpha-1-antichymotrypsin (PSA-ACT) complex (UniProt P07288); assay: silicon nanowire FET (p-type), antibody on the wire; PSA-ACT 0.32 pg/ml
[8] = target: PSA-alpha-1-antichymotrypsin (PSA-ACT) complex (UniProt P07288); assay: silicon nanowire FET (p-type); mixture of f-PSA 0.85, PSA-ACT 3200 and free Ab1 1 x 10^7 pg/ml (f-PSA blocked by Ab1)
[9] = target: PSA-alpha-1-antichymotrypsin (PSA-ACT) complex (UniProt P07288); assay: silicon nanowire FET (p-type), antibody on the wire; PSA-ACT 3.2 pg/ml
[10] = target: prostate specific antigen (PSA) (UniProt P07288); assay: silicon nanowire FET (p-type), antibody on the wire; f-PSA 1700 pg/ml
[11] = target: PSA-alpha-1-antichymotrypsin (PSA-ACT) complex (UniProt P07288); assay: silicon nanowire FET (p-type); mixture of f-PSA 850, PSA-ACT 3200 and free Ab1 1 x 10^7 pg/ml (f-PSA blocked by Ab1)
[12] = target: prostate specific antigen (PSA) (UniProt P07288); assay: silicon nanowire FET (p-type), antibody on the wire; f-PSA 0.085 pg/ml
[13] = target: PSA-alpha-1-antichymotrypsin (PSA-ACT) complex (UniProt P07288); assay: silicon nanowire FET (p-type); mixture of f-PSA 850, PSA-ACT 0.32 and free Ab1 1 x 10^7 pg/ml (f-PSA blocked by Ab1)

## monoclonal antibody anti-ACT-PSA (AbII, clone PSA1, abcam Inc.)
[1]
  Conductance Change, nS: 124 nS
[2]
  Conductance Change, nS: 50 nS
[3]
  Conductance Change, nS: 132 nS
[4]
  Conductance Change, nS: 118 nS
[5]
  Conductance Change, nS: 81 nS
[6]
  Conductance Change, nS: 143 nS
[7]
  Conductance Change, nS: 19 nS
[8]
  Conductance Change, nS: 138 nS
[9]
  Conductance Change, nS: 67 nS
[10]
  Conductance Change, nS: 154 nS
[11]
  Conductance Change, nS: 140 nS
[12]
  Conductance Change, nS: 10 nS
[13]
  Conductance Change, nS: 15 nS
